The target in assay [1] is T1, 小鼠重组RCN3蛋白 (mouse, UniProt Q8BH97 21-328, limits assumed).
T1 construct: Recombinant mouse RCN3 used as coating antigen and in the Western blot; GST and BSA were run as control antigens; also called 小鼠RCN3蛋白; 重组小鼠RCN3蛋白
T1 sequence (looked up): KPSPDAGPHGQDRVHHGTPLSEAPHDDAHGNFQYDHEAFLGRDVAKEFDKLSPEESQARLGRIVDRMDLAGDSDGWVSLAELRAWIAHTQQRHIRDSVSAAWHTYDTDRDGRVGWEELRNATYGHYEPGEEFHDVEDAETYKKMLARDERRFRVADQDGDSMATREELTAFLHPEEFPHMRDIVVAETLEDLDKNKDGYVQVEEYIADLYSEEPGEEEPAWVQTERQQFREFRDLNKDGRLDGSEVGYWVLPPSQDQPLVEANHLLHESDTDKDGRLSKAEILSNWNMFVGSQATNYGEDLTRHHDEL
As to the kind of experiment: phage ELISA, plate coated with 3 μg/mL mouse RCN3 (GST and BSA as controls), HRP anti-M13. For orientation: An ELISA detects its analyte on a solid surface through an enzyme-linked reagent.

Assay [2] concerns the target T1, 小鼠重组RCN3蛋白. As to the kind of experiment: ELISA, plate coated with 3 μg/mL mouse RCN3 (GST and BSA as controls), ScFv-Fc as first antibody, HRP goat anti-human IgG.

B1: 全人源抗小鼠RCN3蛋白单链ScFv抗体的噬菌体克隆 (scFv)
scFv: ELQMTQSPSSLSASVGDRVTITCQASQDITYHLNWYQQKPGKAPKLLIYDASNLVTGVPSRFSGSGSGTDFTVTISSLQPEDFATYYCQHYYNRPPTFGQGTRLEIKGGSSRSSSSGGGGSGGGGQVQLVQSGGGVVQPGRSLRLSCAASGFTFSSYGMHWVRQAPGKGLEWVAVISYDGSNKYYADSVKGRFTISRDNSKNTLYLQMNSLRAEDTAVYYCARDLGTHAFDIWGQGTMVTVSS
notes: The scFv stood on the surface of M13 phage in the assay; also called 单克隆噬菌体
With B1, the binding result in assay [1] is listed as “binds”.

B2: 全人源抗小鼠RCN3带有Fc标签的单链ScFv抗体 (Fc fusion)
scFv: ELQMTQSPSSLSASVGDRVTITCQASQDITYHLNWYQQKPGKAPKLLIYDASNLVTGVPSRFSGSGSGTDFTVTISSLQPEDFATYYCQHYYNRPPTFGQGTRLEIKGGSSRSSSSGGGGSGGGGQVQLVQSGGGVVQPGRSLRLSCAASGFTFSSYGMHWVRQAPGKGLEWVAVISYDGSNKYYADSVKGRFTISRDNSKNTLYLQMNSLRAEDTAVYYCARDLGTHAFDIWGQGTMVTVSS
notes: also called ScFv-Fc抗体; 抗小鼠RCN3蛋白ScFv-Fc抗体; not shown: Fc tag from the eukaryotic expression vector pFUSERTL1
In the case of B2, in assay [2], the binding result is “binds”.

(Values after CN106749656A (UNIV ZHENGZHOU NORMAL, dated 2017).)
